Measured values as given in US20220241369A1, “COMPOSITIONS AND METHODS OF MODULATING INFLAMMATION” (La Jolla Institute for Allergy and Immunology, priority 2018, published 2022).

Columns and labels:
[1] = tested on: c-Kit+ mucosal mast cells of the small intestine; assay: Ex vivo mast cell activation test (MCAT); assay type: cell-based, mouse; details: cells from allergic mice, HRF-2CA 300 μg/ml
Experimental: FIGS. 2A-2C show mucosal mast cells can be activated ex vivo by antigen. Cells were released with EDTA from small intestines of non-sensitized/OVA challenged (Cont) or OVA-sensitized/OVA-challenged (OVA) mice, and mononuclear cells were selected. The cells were incubated for 15 min at 37° C. with OVA or anti-IgE antibody, and activation of Kit^+ mast cells was measured by flow cytometry (FIG. 2A, FIG. 2B). **, ***: p<0.01, p<0.001 by Student's t-test. (n=2; a representative of 2 independent experiments) (FIG. 2C) Mucosal cells derived from OVA-sensitized/OVA-challenged mice were stimulated with PBS (n=4), OVA (10 ng/ml, n=4) or HRF dimer (100 μg/ml, n=2) in the presence or absence of HRF-2CA (300 μg/ml).
FIGS. 11A-11C show HRF dimer, but not monomer can activate mast cells. (FIG. 11A) Purified dimeric and monomeric HRF expressed in E. coli. Recombinant HRF-[…] was purified first by Histrap HP and then Sephacryl S-200 HR16/60. Two peaks were observed by Sephacryl size fractionation. The first (Fr1) and second (Fr3) peaks contained dimer and monomer, respectively, as shown by SDS-PAGE. Fr1 and Fr3 were used for mast cell stimulation. (FIG. 11B) Cells were released with 10 mM EDTA from small intestines of OVA-sensitized/OVA-challenged mice, and mononuclear cells were selected. The cells were incubated for 15 min at 37° C. with mHRF monomer or dimer (100 μg/ml), or PBS, and Kit^+ mast cell activation (LAMP-1^+) was measured by flow cytometry (n=3). (FIG. 11C) Control experiments indicate an excellent specificity of the assay for HRF multimers. HRF-2CA (2CA) was used as a monomer control (n=2 for each concentration). Note that total concentrations of the 1:9 mixture of dimer:monomer gave almost the same luminescence values as did ten-fold less concentrations of dimer.
Twenty-four hours after the last OVA challenge, mice were sacrificed and small intestines (0.5-15 cm from stomach) were collected. The intestinal tissues were opened longitudinally and washed with PBS. Then, the tissues were incubated with 10 mM EDTA-PBS for 30 min at 37° C. After incubation, the tissues were transferred to 30 ml PBS in 50 ml tubes and vigorously shaken. After washed, the cells were resuspended in 40% Percoll solution and slowly loaded on the top of 75% Percoll solution. The cells were then centrifuged (2000 rpm, 20 min) and lymphocytes were collected. The cells were once centrifuged and resuspended in Tyrode's buffer. Abs (Biotin-anti-CD4 mAb (clone RM4-5), Biotin-anti-CD8 mAb (clone 53-6.7), Biotin-anti-B220 mAb (clone RA3-6B2), Biotin-anti-CD326 mAb (clone G8.8), PE-anti-CD117 (clone 2B8), AlexaFluor647-anti-LAMP-1 mAb (clone 1D4B)) (Biolegend) were added and cells were then stimulated with OVA, anti-IgE (clone RME-1, BioLegend) and recombinant dimeric murine HRF for 15 min at 37° C. After activation, cells were washed and incubated with FITC-streptavidin (Catalog #405202, Biolegend) for 30 min at 4° C. LAMP-1 expression was detected using FACS Calibur. Data were analyzed using FlowJo software.

[2] = tested on: OVA-induced food allergy (allergic diarrhea); assay: Therapeutic i.v. treatment with HRF inhibitor after allergic diarrhea is established; assay type: in vivo, mouse; details: i.v. 30 μg twice
Experimental: FIGS. 5A-5F show therapeutic treatment with HRF inhibitor ameliorates the severity of food allergy. Mice were sensitized and i.g. challenged with OVA. By the seventh OVA challenge, all the mice suffered diarrhea. These mice were pretreated i.v. with 30 μg of HRF-2CA (2CA) or PBS (OVA) before challenged with OVA two more times. (FIG. 5A) Procedure scheme. (FIG. 5B) Diarrhea severity (n=11 for OVA, n=13 for HRF-2CA and n=4 for non-sensitized control (not shown); pooled data of two independent experiments). ***: p<0.001 by two-way ANOVA. (FIG. 5C) Total and OVA-specific IgE and IgG1 concentration in sera were measured by ELISA. (FIG. 5D) mMCP-1 in sera was measured by ELISA. (FIG. 5E) Sections of jejunum were stained with chloroacetate esterase. (FIG. 5C—FIG. 5E) *, **, ***: p<0.05, p<0.01, p<0.001 by Student's t-test. (FIG. 5F) Similar i.v. therapeutic treatment of allergic mice was conducted with 30 μg of synthetic N19 peptide (n=12 for OVA and n=12 for pepN19; pooled data of two independent experiments). […] by two-way ANOVA.
Mice were i.p. sensitized with OVA (50 μg/mouse) plus alum on days 0 and 14. From day 28, mice were i.g. challenged with OVA (25 or 50 mg) or PBS (control) three times a week. Before each challenge, mice were starved for 3 h, then i.g. pretreated with GST, GST-N19 (100 μg/mouse), synthetic N19 peptide, or HRF-2CA. The development of diarrhea was monitored for 90 min after OVA challenge. Diarrhea severity (30) was based on states of stool: solid (score 0), funicular (score 1), slurry (score 2), and watery (score 3).
Applicant next tested whether HRF inhibitors modulate food allergy after diarrhea has begun. […] One cohort of mice was intravenously (i.v.) treated twice with PBS followed by OVA challenge, and the other were i.v. treated twice with 30 μg of HRF-2CA followed by OVA challenge (FIG. 5A).

[3] = tested on: OVA-induced allergic diarrhea; assay: Food allergy experiments in WT and FceRIa-/-, FcgRIIB-/-, Enpp3-/- mice; assay type: in vivo, mouse; details: WT and mutant mice, via FcεRI
Source text: FIGS. 10A-10C show HRF-2CA suppresses allergic diarrhea via FcεRI. WT and mutant mice were subjected to food allergy experiments as described in the FIG. 1 legend. FceRIa^−/− (n=4-5 each for group with sensitization and n=3 each for unsensitized group (Cont; no diarrhea was observed))(FIG. 10A), FcgRIIB^−/− (n=9-10 each for groups with sensitization and n=4-5 each for unsensitized groups (Cont; no diarrhea was observed); pooled data of two independent experiments) (FIG. 10B), and Enpp3^−/− (n=9-10 each for groups with sensitization and n=7 each for unsensitized groups (Cont; no diarrhea was observed); pooled data of two independent experiments) (FIG. 10C) mice along with WT mice were used. *, ***: p<0.05, p<0.001 by Student's t-test.
BALB/c mice were bred in the animal facility of RIKEN IMS. Frozen zygotes of FceRIa^−/− mice were donated by Takashi Saito (RIKEN IMS) and bred at RIKEN IMS. FcgRIIB^−/− mice provided by Toshiyuki Takai (Tohoku University) were also bred at RIKEN IMS. Food allergy experiments with Enpp3^−/− mice were conducted at Osaka University. All genetically modified mice were backcrossed to BALB/c background for more than ten generations.
Mice were i.p. sensitized with OVA (50 μg/mouse) plus alum on days 0 and 14. […] The development of diarrhea was monitored for 90 min after OVA challenge. […]

B1: HRF-2CA-His6, a monomeric mutant of mouse HRF (protein)
chain: MIIYRDLISHDELFSDIYKIREIADGLALEVEGKMVSRTEGAIDDSLIGGNASAEGPEGEGTESTVVTGVDIVMNHHLQETSFTKEAYKKYIKDYMKSLKGKLEEQKPERVKPFMTGAAEQIKHILANFNNYQFFIGENMNPDGMVALLDYREDGVTPFMIFFKDGLEMEKAHHHHHH
- HRF-induced activation of mucosal mast cells ([1]; HRF dimer 100 μg/ml): significantly suppressed
- OVA-induced activation of mucosal mast cells ([1]; OVA 10 ng/ml): significantly suppressed
- clinical scores (diarrhea severity, severity of food allergy) ([2]; after diarrhea by the 7th OVA challenge): significantly reduced
- mucosal mast cells ([2]; therapeutic): did not reduce
- serum mMCP-1 levels ([2]; therapeutic): modestly but significantly reduced
- total IgE, IgG1 ([2]; therapeutic): did not reduce
- allergic diarrhea [3]: suppresses
